Measured values from publication PMC9628938, “DED Interaction of FADD and Caspase-8 in the Induction of Apoptotic Cell Death” (Journal of Microbiology and Biotechnology, 2022).

Tests used:
Assay in all cases: SPR; Biacore T100; FADD DED amine-coupled to CM5 chip; caspase-8 DEDs 250 to 5,000 nM as analyte in HBS-EP+ (10 mM HEPES pH 7.4, 150 mM NaCl, 3 mM EDTA, 0.05% P20), 25°C; apparent KD
Conditions in all cases: both partners purified
[1] = target: T1, caspase-8 DEDs (residues 1-188) I128A, His-tagged (human, UniProt Q14790 1-188, I128A)
T1 construct: human caspase-8, tandem death-effector domains, residues 1-188; also called Caspase-8 DEDs (I128A); source: E. coli BL21(DE3), purified (Ni-NTA, gel filtration)
T1 sequence (Q14790 1-188 I128A): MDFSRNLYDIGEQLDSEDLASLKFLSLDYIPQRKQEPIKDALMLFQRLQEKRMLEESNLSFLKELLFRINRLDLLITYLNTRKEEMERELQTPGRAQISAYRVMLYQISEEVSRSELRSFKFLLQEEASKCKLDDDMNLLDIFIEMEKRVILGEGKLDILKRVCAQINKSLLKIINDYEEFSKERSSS

[2] = target: T2, caspase-8 DEDs (residues 1-188) R5E/I128A, His-tagged (human, UniProt Q14790 1-188, R5E | I128A)
T2 construct: human caspase-8, tandem death-effector domains, residues 1-188; also called Caspase-8 DEDs (R5E/I128A); source: E. coli BL21(DE3), purified (Ni-NTA, gel filtration)
T2 sequence (Q14790 1-188 R5E/I128A): as the sequence (Q14790 1-188 I128A) above, with R5E counted along it

[3] = target: T3, caspase-8 DEDs (residues 1-188), His-tagged, wild type (human, UniProt Q14790 1-188)
T3 construct: human caspase-8, tandem death-effector domains DED1 and DED2, residues 1-188; Cloned in pET-28a; also called His-caspase-8 DEDs (1-188); wild-type caspase-8 DEDs; source: E. coli BL21(DE3), purified (Ni-NTA, gel filtration); also co-expressed with FADD DED in E. coli and co-purified
T3 sequence (Q14790 1-188): as the sequence (Q14790 1-188 I128A) above, with A128I counted along it

B1: FADD DED (residues 1-83), His-tagged (domain or fragment, human, UniProt Q13158 1-83, looked up)
chain: MDPFLVLLHSVSSSLSSSELTELKFLCLGRVGKRKLERVQSGLDLFSMLLEQNDLEPGHTELLRELLASLRRHDLLRRVDDFE
notes: human FADD (MORT1), death-effector domain construct, residues 1-83; Cloned in pET-28a; also called wild-type FADD DED; Fas-associated death domain; source: E. coli BL21(DE3), purified (Ni-NTA, gel filtration); also co-expressed with caspase-8 DEDs in E. coli and co-purified
[1]
  Kd: 61 nM
[2]
  Kd: 236 nM
[3]
  Kd: 38 nM
